This note sets out measurements from US6605426B1, “Compounds, methods of screening, and in vitro and in vivo uses involving anti-apoptotic genes and anti-apoptotic gene products” (priority 1998, dated 2003).

Test [1] has as its system HeLa cells. In words: Apoptosis resistance of HeLa clones stably expressing pUL37Smyc. It is filed as cell-based, human. From the text: In a preferred embodiment, HeLa clones continuously (as opposed to transiently) express the version of pUL37s tagged with the C-terminal myc-peptide (amino acids 408-421 within the carboxy terminal domain of human c-Myc) generated by stable transfection with either an expression plasmid containing UL37S alone, or in a mixture with an expression plasmid coding for puromycin-N-acetyl-transferase such as pPUR (Clontech, Palo Alto, Calif.). Following the transfection, drug-resistant clones are selected in medium containing G418 (0.7 mg/mL) or in medium containing puromycin (1 μg/ml), and then the clones are screened for the expression of pUL36-myc-tagged and pUL37S-myc-tagged polypeptides, respectively, by Western analysis with 9E10 anti-Myc antibody (Santa Cruz Biotechnology, Inc., Santa Cruz, Calif.). In using this approach, the present inventors isolated four clones that expressed pUL37S-myc (designated as HeLa/UL37S). These clones were then used to conduct further studies reported in Example 9. Also, four G418-resistant clones of HeLa cells stably transfected with pcDNA3/myc (empty vector, control) were isolated by similar procedures, two with G418 (HeLa/G418) and two with puromycin (HeLa/puro), and used as a negative control in the Western blot analysis and experiments studying the anti-apoptotic activity of the clones.
Three transfected G418-resistant HeLa clones were isolated that stably express pUL37S myc (designated HeLa/UL37×1myc #3, #8, and #N1), as detected by Western blot analysis with the 9E10 anti-myc antibody (Evan et al., 1985, which is incorporated herein by reference) (FIG. 8A). In parallel, three HeLa clones were isolated following stable transfections with the pcDNA3 vector alone (designated HeLa/pcDNA3-A, -B, and —C). […] While virtually all of the HeLa/pcDNA3-A control cells died following an overnight exposure to anti-Fas antibody+CHX or TNF-α+CHX, only a small fraction of the pUL37Smyc-expressing cells underwent apoptosis after an overnight exposure to these agents FIG. 8B). Moreover, most of the pUL37Smyc-expressing cells continued to survive for more than 3 days of culturing in the presence of either anti-Fas antibody+CHX or TNF-α+CHX.
The present inventors tested whether pUL37S can inhibit apoptosis triggered by other stimuli. […] Thus, pUL37S is a broadly acting inhibitor of apoptosis that can inhibit or diminish cell death induced by a variety of cytotoxic agents.

In test [2] the test system is HeLa/UL37x1#3 cells. In words: Dominant-negative assay: pUL37S deletion mutants in HeLa/UL37x1#3 cells, β-galactosidase ELISA. The test is classed as cell-based, human. The note with it: HeLa/UL37S #3 cells transfected with the empty vector; anti-Fas plus cyclohexamide 24 h. Here is the method:
24 h after co-transfection, the cells were either exposed for an additional 24 h to anti-Fas antibody, in the presence of cyclohexamide (FIGS. 11A and 11B, closed bars) or left untreated (FIGS. 11A and 11B, open bars). The surviving cells were than quantified by determining the β-galactosidase levels with a β-galactosidase ELISA (Boehringer Mannheim). […] The control HeLa/pcDNA3-A cells were sensitive to Fas-mediated apoptosis, and this sensitivity was not affected by the expression of the deletion mutants.
Apoptosis was induced in the cell line HeLa/UL37x1#3 (HeLa cells transfected with UL37x1, clone No. 3), that constitutively expresses pUL37Smyc and is resistant to apoptosis, through the addition of anti-Fas antibodies and cyclohexamide to the culture medium. To identify dominant-negative mutants, HeLa/UL37x1#3 cells were co-transfected with the lacZ (encoding β-galactosidase) indicator plasmid vector, together with either an expression vector for a pUL37S deletion mutant or the empty plasmid vector, pcDNA3. […]
One day after the transfection, cells were treated with anti-Fas antibody plus cyclohexamide for 24 h. Cell survival was then assessed by measuring spectrophotometrically the level of β-galactosidase expression, as described in Example 1. […]

For test [3], the system named is HeLa cells. Put plainly: Transient transfection apoptosis assay in HeLa cells (anti-Fas antibody+CHX or TNF-α+CHX). It is filed as cell-based, human. The note with it: transiently transfected HeLa cells; anti-Fas antibody+CHX 24 h; surviving cells scored. The procedure:
Tumor necrosis factor receptor 1 (TNF-R1)-mediated apoptosis was induced by exposure of HeLa and MRC-5 cells to tumor necrosis factor-α (TNF-α) (Sigma, 10-60 ng/mL)+CHX (10-30 μg/mL). Fas-mediated apoptosis was induced by exposure of cells to an anti-Fas antibody (Coulter, 7C11 antibody at 0.2-4 μg/mL)+CHX (10-30 μg/mL). The degree of cell death was determined by the visual scoring of surviving cells, in representative fields, under a phase microscope. A similar degree of cell death occurred in fibroblasts when examined 5 to 28 h after the start of exposure, or a similar degree of cell death occurred in HeLa cells when examined 9-28 h after the start of exposure. Further, a similar degree of cell death for a given reagent was produced when any concentration within the range indicated above was used.
The degree of cell death in cells transfected with an indicator plasmid expressing E. coli β-galactosidase was determined by either a β-galactosidase ELISA (Boehringer Mannheim), in accordance with the manufacturer's recommendations, or by visually scoring, under a microscope, positive blue cells, expressing β-galactosidase, after staining them with X-gal.
HeLa cells were transiently co-transfected with an expression plasmid vector, pME18S, carrying a polynucleotide sequence encoding IE1 or IE2 (FIG. 5, “IE1” and “IE2,” respectively), and a vector carrying the β-galactosidase gene (pCMVβ, Clontech). As a positive control, HeLa cells were transiently co-transfected with pCMVβ and a vector carrying a polynucleotide sequence encoding an anti-apoptotic polypeptide, such as the adenovirus E1B 19K or baculovirus p35.
Expression of IE1 (approx. 72 kDa) and IE2 (approx. 86 kDa) in the transfected HeLa cells was confirmed by Western blot analysis, by immunofluorescence visually examined under a fluorescence microscope, and by transactivation activity which led to an elevation of the vector-CMV-promoter-driven β-galactosidase expression which was increased 2- to 5-fold, as measured by a β-galactosidase ELISA (data not shown). Apoptosis was induced by incubating the transfected cells for 24 h with either TNF-α+CHX, or anti-Fas antibody+CHX. The surviving cells were stained with X-gal, a chromogenic substrate of β-galactosidase, and then the blue-stained cells were scored (FIG. 5).
To identify HCMV genes that can suppress apoptosis induced by Fas-ligation, the present inventors established a transient transfection assay in HeLa cells. The HeLa cells can be transfected at much higher efficiency than MRC-5 cells and are similar in their sensitivity towards anti-Fas antibody and TNF-α treatment. Enhanced survival of HeLa cells following anti-Fas antibody+CHX treatment was detected by elevated β-galactosidase (β-gal) levels produced by a transfected β-gal marker plasmid.
The deletion mutants were transiently expressed in HeLa cells, cultured in DMEM supplemented with 10% fetal bovine serum, and assayed for their ability to block Fas- or TNF-R1-mediated apoptosis. Transfections and apoptosis assays were performed as previously described (Goldmacher et al., 1999). Briefly, cells were transiently transfected with the expression vectors (purified with a Qiagen plasmid purification kit) using SuperFect transfection reagent (Qiagen) in accordance with the manufacturer's protocol. After 24 hours, cells were exposed to anti-Fas 7C11 antibody (Coulter, 0.5 μg/ml)+cyclohexamide (Sigma, 10 μg/ml) for 24 hours.
A genomic DNA library was cloned into pZeoSV2(+) plasmid (Invitrogen). Ten cosmids, pCM1007, pCM1015, pCM1017, pCM1029, pCM1035, pCM1039, pCM1040, pCM1052, pCM1058, and pCM1072, covering the AD169 genome (Fleckenstein et al., 1982, which is incorporated herein by reference), and pON2601 Toledo cosmid (Cha et al., 1996, which is incorporated herein by reference) containing unique HCMV sequences, were mixed in equal amounts and partially digested with Sau3AI (New England Biolabs, Beverly, Mass.). […]

Test [4] addresses T1, full-length pro-caspase 8 (Homo sapiens, UniProt Q14790).
T1 construct: HA-tagged full-length pro-caspase 8 (lanes 5 and 6); expressed in transfected cells; host or cells: 293T cells co-transfected with pUL36AD169-earlymyc or pUL36AD169-ATCCmyc
Put plainly: Co-precipitation in co-transfected 293T cells (anti-HA IP, anti-myc blot). It is filed as binding. The note with it: HA-tagged pro-caspase 8. From the text: (§1) Pro-caspase 8 was detected on the pUL36-containing beads (lane 4), but not on the control beads (lane 2), while the lysates from all these cells contained similar amounts of pro-caspase 8 (compare lanes 1 and 3). […] To test this hypothesis, 293T cells were co-transfected with pUL36AD169-earlymyc and with a truncated pro-caspase 8, containing only its HA-tagged pro-domain region. pUL36AD169-earlymyc is expressed by a fusion gene comprising a UL36 ORF isolated from a pre-1982 passage of CMVAD169 and the carboxy-linked myc epitope tag. The cells were lysed as above, and anti-HA antibody was used to immunoprecipitate the caspase 8 pro-domain. Anti-myc antibodies were then used to probe a Western blot for the inclusion of pUL36 with the immunoprecipitated material. Control cells were transfected with pUL36AD169-earlymyc with either the empty vector (negative control), or with HA-tagged pro-caspase 8 (positive control). Additional cells were co-transfected with the non-functional mutant pUL36AD169-ATCCmyc with either the HA-pro-domain, the empty vector or HA-pro-caspase 8.

The target in test [5] is T2, pro-domain of caspase 8 (Homo sapiens, UniProt Q14790).
T2 construct: a truncated pro-caspase 8, containing only its HA-tagged pro-domain region; expressed in transfected cells; host or cells: 293T cells co-transfected with pUL36AD169-earlymyc or pUL36AD169-ATCCmyc
The description is as above. It is filed as binding. Conditions: HA-tagged pro-domain.
Excerpt: as §1

T2 sequence (Q14790 1-216 limits assumed): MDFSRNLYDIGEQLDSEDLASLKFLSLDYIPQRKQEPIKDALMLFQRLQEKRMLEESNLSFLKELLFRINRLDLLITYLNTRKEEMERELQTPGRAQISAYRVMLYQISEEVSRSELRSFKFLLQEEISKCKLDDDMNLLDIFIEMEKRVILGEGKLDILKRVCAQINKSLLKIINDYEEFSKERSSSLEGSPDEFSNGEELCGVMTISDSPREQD
T1 sequence (Q14790 whole entry): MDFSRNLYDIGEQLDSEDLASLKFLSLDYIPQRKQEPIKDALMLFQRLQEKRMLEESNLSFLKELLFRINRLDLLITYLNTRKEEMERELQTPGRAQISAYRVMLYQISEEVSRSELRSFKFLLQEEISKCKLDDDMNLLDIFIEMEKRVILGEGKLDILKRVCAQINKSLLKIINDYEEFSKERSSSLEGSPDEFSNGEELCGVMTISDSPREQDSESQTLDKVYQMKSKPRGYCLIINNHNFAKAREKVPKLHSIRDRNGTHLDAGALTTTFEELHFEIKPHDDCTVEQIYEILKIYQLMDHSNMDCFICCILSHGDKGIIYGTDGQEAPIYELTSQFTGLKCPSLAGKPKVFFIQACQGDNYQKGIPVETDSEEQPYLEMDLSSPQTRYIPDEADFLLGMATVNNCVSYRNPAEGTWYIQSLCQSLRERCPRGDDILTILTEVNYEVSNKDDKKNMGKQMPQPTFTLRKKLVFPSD

B1: pUL37Smyc: pUL37S fused at its C-terminus with a c-myc-epitope tag; constitutively expressed in HeLa/UL37x1#3 cells (protein)
chain: MSPVYVNLLGSVGLLAFWYFSYRWIQRKRLEDPLPPWLRKKKACALTRRSRHRLRRQHGVIDGENSETERSVDLVAALLAEAGEESVTEDTEREDTEEEREDEEEENEARTPEVNPIDAEGLSGLAREACEALKKALRRHRFLWQRRQRARMLQHNGPQQSHQ
Consider B1, for which, in test [1] (doxorubicin 1, 3, and 6 μM, 24 h, trypan blue exclusion), the “resistance to apoptosis induced by doxorubicin” value is on record as “substantially more resistant”. Further, the “duration of survival in culture with apoptotic stimulus” value in test [1] (in the presence of either anti-Fas antibody+CHX or TNF-α+CHX) is on record as “more than 3 days”. Besides, the “resistance to TNF-R1-mediated apoptosis” value in test [1] (stable HeLa clones, TNF-α+CHX) is “resistant”. In addition, the “resistance to Fas-mediated apoptosis” value in test [1] (stable HeLa clones, anti-Fas antibody+CHX) is on record as “resistant”. Further, the “β-gal signal compared to untreated cells” value in test [2] is listed as “about 40%”.

B2: pUL36AD169-early: pUL36 of an early (pre-1982) passage of HCMV strain AD169; Cys131 (protein)
chain: MDDLRDTLMAYGCIAIRAGDFNGLNDFLEQECGTRLHVAWPERCFIQLRSRSALGPFVGKMGTVCSQGAYVCCQEYLHPFGFVEGPGFMRYQLIVLIGQRGGIYCYDDLRDCVYELAPTMKDFLRNGFRHCDHFHTMRDYQRPMVQYDDYWNAVMLYRGDVESLSAEVTKRGYASYTIDDPFDECPDTHFAFWTHNTEVMKFKETSFSVVRAGGSIQTMELMIRTVPRITCYHQLLGALGHEVPERKEFLVRQYVLVDTFGVVYGYDPAMDAVYRLAEDVVMFTCVMGKKGHRNHRFSGRREAIVRLEKTPTCQHPKKTPDPMIMFDEDDDDELSLPRNVMTHEEAESRLYDAITENLMHCVKLVTTDSPLATHLWPQELQALCDSPALSLCTDDVEGVRQKLRARTGSLHHFELSYRFHDEDPETYMGFLWDIPSCDRCVRRRRFKVCDVGRRHIIPGAANGMPPLTPPHVYMNN
Take B2: the “anti-apoptotic activity: protection against Fas-mediated apoptosis” value in test [3] was “effective death suppressors”. Also, the “co-precipitation with full-length pro-caspase 8” value in test [4] is “co-precipitated”. Moreover, the “co-precipitation with the pro-domain of caspase 8” value in test [5] is “co-precipitated”.
